Paper PMC9323360, “Cloning, Expression, Purification, and Characterization of β-Galactosidase from Bifidobacterium longum and Bifidobacterium pseudocatenulatum” (Molecules, 2022)

Substrate: O=[N+]([O-])c1ccccc1O[C@@H]1O[C@H](CO)[C@H](O)[C@H](O)[C@H]1O
Experiment: purified protein

Row | Protein | Km (pH 5.5, 45 °C) | Vmax (pH 5.5, 45 °C) | kcat (pH 5.5, 45 °C) | kcat/Km (pH 5.5, 45 °C) | Km (pH 6.0, 45 °C) | Vmax (pH 6.0, 45 °C) | kcat (pH 6.0, 45 °C) | kcat/Km (pH 6.0, 45 °C)
1 | BLGLB1 (Bifidobacterium longum) (protein) MTTRRTFRWPSLLTESGRGIAFGGDYNPDQWSEETLDEDIRLMVQAGVNTVALAIFSWDKIEPREGEFTFEWLDHVIDKLGAAGIAVDLASATATAPLWLYERHPEVLPIDRYGHVVNAGSRQSWQPTSPVLKEYALRLCRKLAEHYKDNPYVTAWHMGNEYGWNNRYDYSDNALAAFRTWCEAKYGTVDALNEAWGTAFWSQHVNSFDEVLLPRHMGGDSMVNPPQQLDYERFGNDMLLDFYKAERDAIEEICPGKPFTTNFMVSTDQCTMDYAQWANEVDFVSNDHYFHEGESHLDELACSDALMDSLALGKPWYVMEHSTSAVQWKPLNMRKRAGELMRDSLAHVAMGADAINFFQWRQSASGAEAFHSAMVPHAGSDTKLFRGVCELGAALKTLSDAGVQDTELKRADTAILFSAESEWATRSETLPSMKLNHWHDVRDWYRGYLDAGARADVVPLAYDWSGYQTIVLPTVIALSDEDTRRIADFAENGGTVIVGYATGLIDEHFHIGLGGYPGAGNGLLRDMLGIRSEEFNILGEEAEDEPAEIGLSNGLTTRLWQNDVTSVAPDTRVLATYVGTAAADWELDGVPAITSHPHGQGAAIYVGCDLGRHDITHLLKELNTTAPSDERAPDQRPGGGEINAATTTAAAATHDPRILHTIRQSSDGTIRFDFYLNRSKQPVAVNGVEGDPIIAHRCETDAVGYTLNRNAILIAKTSC | 1900 ± 100 µM | 3700 ± 100 (oNPG) | 1700 ± 40 s⁻¹ | 870 (oNPG) | – | – | – | –
2 | BPGLB1 (Bifidobacterium pseudocatenulatum) (protein) MHRTFKWPELLTDNGKGIAYGGDYNPDQWSEDVWDEDVRLMKQAGVNTVAVAIFSWDRIQPEENRWDFGWLDRIIDKLGKAGIAVDLASATATAPLWLYEKHPEVLPQDKFGHPVNAGSRQSWSPTSPVFKEYALTLCRKLAERYGTNPYVTAWHMGNEYGWNNRYDYSDNALNAFRLWCERKYGTIENLNKAWGTTFWGQEMNGFHEVLIPRFMGADSMVNPGQKLDFERFGNDMLLDFYKAERDAIAEICPDKPFTTNFMVSTDQCCMDYADWAEEVDFVSNDHYFHEGESHIDELFCSDALMDSLALGKPWYVMEHSTSAVQWKPLNARKRKGETVRDSIAHVAMGADAINFFQWRASAFGAESFHSALVPHAGEDTKLFRQVCELGAALKTLGDAGVQGTELEQSDTAILFSAESEWATRSETLPSMKLNHWHDVRDWYRAFLNAGTRADIVPLKYDWNAYKTVVLPTVIMLSAEDTQRLADFAAAGGRVVIGYATGLIDENFHTWLGGYPGAGDGLLREMLGIRGEEFNILGAEAEGEPSEIRLSSGAVTRLWQNDVNVDGERAQVLATYEGEEADEWELDGTAAITRNPYGSGETYFVGCDLNVADLTEFVRENIVEDSANVANPADSDVLHTVRKSADATFDFYLPRGKKEIALQGIEGEPIYLFQAEAEERTGSYTVHRNGVLVVKRA | – | – | – | – | 1300 ± 300 µM | 1.1 ± 0.1 (oNPG) | 0.5 ± 0.02 s⁻¹ | 0.36 (oNPG)
